T1: hOX40-muFc (human; mouse, UniProt P43489 29-216)
T1 construct: range 1-216; Expressed in HEK293, purified on Protein A; also called recombinant human OX40; not shown: mouse IgG1-Fc (muFc) domain, residue 98 to residue 324 of P01868
T1 sequence (looked up): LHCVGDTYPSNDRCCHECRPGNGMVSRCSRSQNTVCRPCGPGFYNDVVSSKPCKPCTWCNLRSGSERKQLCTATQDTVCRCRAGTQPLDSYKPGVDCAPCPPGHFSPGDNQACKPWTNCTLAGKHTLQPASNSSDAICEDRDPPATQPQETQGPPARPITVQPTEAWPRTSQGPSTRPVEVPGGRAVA

T2: hCD27-EGFP on HEK293 cells (human, UniProt P26842 20-260)
T2 construct: pcDNA4-hCD27-EGFP transfected into HEK293; not shown: EGFP, C5MKY7
T2 sequence (looked up): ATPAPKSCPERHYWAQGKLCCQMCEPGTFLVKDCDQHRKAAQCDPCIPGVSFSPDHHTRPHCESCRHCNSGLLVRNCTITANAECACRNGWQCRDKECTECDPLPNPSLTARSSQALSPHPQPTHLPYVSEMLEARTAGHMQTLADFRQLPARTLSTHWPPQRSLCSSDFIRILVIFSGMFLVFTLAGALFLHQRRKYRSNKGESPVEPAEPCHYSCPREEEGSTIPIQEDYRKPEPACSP

B1: anti-OX40 21#H96 mAb (antibody, IgG4, V domains shown)
VH: QVQLQQSGPGLVKPSQTLSLTCAISGDSVSSNSVSWDWIRQSPSRGLEWLGRTYYRSKWYNEYAVSVESRITINPDTSKNQFSLQLNSVTPEDTAIYFCVRNDYFFDLWGRGTLVTVSS
VL: EIVLTQSPATLSLSPGERATLSCRASQSVSSYLAWYQQKPGQAPRLLIYDASDRATGIPARFSGSGSGTDFTLTISSLEPEDFAVYYCQLRSNWPPGYTFGQGTKVEIK
notes: Formatted as IgG according to Embodiment 3 (IgG4); also called H96 heavy chain mutant; not shown: human immunoglobulin gamma4 (IgG4) constant region, P01861; human immunoglobulin kappa light chain constant region, P01834
B2: O21 mAb (antibody, IgG4, V domains shown)
VH: B1 VH with D103N
VL: B1 VL
notes: also called 021 mAb; anti-OX40 21# mAb; not shown: human immunoglobulin gamma4 (IgG4) constant region, P01861; human immunoglobulin kappa light chain constant region, P01834
B3: anti-OX40 21#H28H33 mAb (antibody, IgG4, V domains shown)
VH: B1 VH with S28N, S33G, D103N
VL: B1 VL
notes: Formatted as IgG 'according to the method in Embodiment 3' (IgG4); not shown: human immunoglobulin gamma4 (IgG4) constant region, P01861; human immunoglobulin kappa light chain constant region, P01834
B4: anti-OX40 21#H65 mAb (antibody, IgG4, V domains shown)
VH: B1 VH with S69N, D103N
VL: B1 VL
notes: Formatted as IgG according to Embodiment 3 (IgG4); not shown: human immunoglobulin gamma4 (IgG4) constant region, P01861; human immunoglobulin kappa light chain constant region, P01834
B5: anti-OX40 21#H96-L80 mAb (antibody, V domains shown)
VH: B1 VH
VL: B1 VL with S30G, D53N, L90Q
notes: Formatted as IgG according to Embodiment 3 (IgG4); also called H96-L80 IgG4; not shown: human immunoglobulin gamma4 (IgG4) constant region, P01861; human immunoglobulin kappa light chain constant region, P01834
B6: anti-OX40 21#VHnew-L80 mAb (antibody, IgG4, V domains shown)
VH: B1 VH with S33G, S69N
VL: B1 VL with S30G, D53N, L90Q
notes: as for B4
B7: O19 mAb (antibody, IgG4, V domains shown)
VH: QVQLVESEGGLVQPGGSLRLSCAASRFTFSNYWMSWVRQAPGKGLEWVANIKQDGSEKYYMDSVKGRFTISRDNAKNSLFLQMNTLRAEDTAMYYCTRVSFGVPTYDDFWRSYATPAWYFDFWGRGTLVTVSS
VL: QSALIQPASVSGSPGQSITISCTGISSDDGYYKYVSWYQQYPGKAPKLMIYDVSKRPSGISFRFSGSKSGNTASLTISGLQAEDEADYYCSSYTSNMTPYVFGTGTKVTVL
notes: IgG4, lambda; expressed in HEK293; not shown: human immunoglobulin gamma4 (IgG4) constant region, P01861; human immunoglobulin lambda light chain constant region, A0M8Q6
B8: O3 mAb (antibody, IgG4, V domains shown)
VH: QVQLQQWGAGLLKPSETLSLTCGFNGEYFTDYFWTWVRQPPGEALEWLALIYWDDDERYSPSLKNRLIITKDISKNQVVLTMTHMEPADTGTYYCARWGGSLMNAFDVWGPGTMVTVSS
VL: QSALIQPASVSGSPGQSITISCTGTSSDVGGYNYVSWYQRHPGKAPRLMIYDVTKRPSGVSNRFSGSKSGNTASLTISGLQAEDEADYYCSSYTSSSIAVFGGGTQLTVL
notes: IgG4, lambda; expressed in HEK293; also called 03 mAb; not shown: human immunoglobulin gamma4 (IgG4) constant region, P01861; human immunoglobulin lambda light chain constant region, A0M8Q6
B9: O21 scFv (scFv)
scFv: QVQLQQSGPGLVKPSQTLSLTCAISGDSVSSNSVSWDWIRQSPSRGLEWLGRTYYRSKWYNEYAVSVESRITINPDTSKNQFSLQLNSVTPEDTAIYFCVRNNYFFDLWGRGTLVTVSSGGGGSGGGGSGGGGSEIVLTQSPATLSLSPGERATLSCRASQSVSSYLAWYQQKPGQAPRLLIYDASDRATGIPARFSGSGSGTDFTLTISSLEPEDFAVYYCQLRSNWPPGYTFGQGTKVEIK
notes: Purified as scFv fused with human IgG1-Fc; also called anti-OX40 21# scFv; not shown: human IgG1-Fc (hFc) domain, residues 104-330 of P01857
B10: O3 scFv (scFv)
scFv: QVQLQQWGAGLLKPSETLSLTCGFNGEYFTDYFWTWVRQPPGEALEWLALIYWDDDERYSPSLKNRLIITKDISKNQVVLTMTHMEPADTGTYYCARWGGSLMNAFDVWGPGTMVTVSSGGGGSGGGGSGGGGSQSALIQPASVSGSPGQSITISCTGTSSDVGGYNYVSWYQRHPGKAPRLMIYDVTKRPSGVSNRFSGSKSGNTASLTISGLQAEDEADYYCSSYTSSSIAVFGGGTQLTVL
notes: Purified as scFv fused with human IgG1-Fc, expressed in HEK293; also called anti-hOX40 scFv O3; not shown: human IgG1-Fc (hFc) domain, residues 104-330 of P01857

Residue numbers refer to the chain shown, from its start.

The target of the first assay is T1, hOX40-muFc. Kind of assay: ELISA, hOX40-muFc coated at 2 µg/ml, goat anti-human IgG-HRP; column C of the drawn 4-P fit table y=(A-D)/(1+(x/C)^B)+D; the axis prints no unit, ng/ml is from paragraph 210. On the procedure: (§1) hOX40-muFc was diluted to 2 μg/ml with coating buffer (50 mM Na₂CO₃, NaHCO₃ pH 9.6), 100 μL/well, 4° C. overnight. After washing, blocking was performed using 3% BSA-PBS for 1 h at 37° C. The anti-hOX40 antibodies were diluted respectively from 2000 ng/ml and was diluted 2-fold in a total of 11 concentrations, with the diluent (1% BSA-PBS) as a control, and incubated at 37° C. for 2 h. Goat anti-human IgG-HRP conjugated was added and incubated for 1 h at 37° C. Soluble one-component TMB substrate developer solution is added, and the developing was performed in dark at room temperature for 5-10 min. 2N H₂SO₄ 50 μL/well was added to terminate the color development reaction. The OD of the obtained solution was determined at 450 nm-650 nm on MD SpectraMax Plus 384 microplate reader and SoftMaxPro v5.4 was used for processing data, making graphs and analysis. […] It can be seen from FIG. 5 and FIG. 6 that all the above variants of anti-OX40 21 # mAb can bind to OX40 and the affinity of the in vitro affinity-matured anti-OX40 21 # VHnew-L80 mAb and anti-OX40 21#H96-L80 mAb increased approximately two times compared to anti-OX40 21# mAb.
Usually EC50 stands for the concentration needed to bring the measured effect to its halfway point. A lower EC50 goes with an effect from little substance. The molecule B1 had an EC50 of 0.046 µg/mL.
On the same count and under the same terms, with B2 the figure was 0.0758 µg/mL; with B3, 0.0432 µg/mL.
Take B4: a half-maximal effect (EC50) was put at 0.0609 µg/mL.

A further assay deals with T1, hOX40-muFc. Described as above. The source holds these as a separate data set. On the procedure:
as §1
For B2, the EC50 is 0.0298 µg/mL.
On to B5, for which the EC50 came out at 0.0154 µg/mL.
B6 came in with an EC50 of 0.0134 µg/mL.

The target in the next assay is T1, hOX40-muFc. In words: SPR, BIAcore X100; antibody captured by anti-human Fc on CM5 chip, OX40-muFc as analyte. The protocol: (§2) The binding kinetics of anti-hOX40 antibody to recombinant human OX40 was measured by surface plasmon resonance (SRP) method using a BIAcore X100 instrument. Anti-human Fc antibody (no cross-identification against the mouse Fc) was conjugated on CM5 chip, the test antibody was diluted to 5 nM with running buffer and captured as a ligand by the anti-human Fc antibody on the CM5 chip. […] The injection time is 180 s, the dissociation time is 1800 s and the regeneration time is 60 s. The running buffer is HBS-EP+, and the regeneration buffer is 10 mM glycine-HCl (pH 2.0). The association rate (kₒₙ) and dissociation rate (koff) were calculated using a simple one-to-one Languir binding model (BIAcore Evaluation Software version 3.2). The equilibrium dissociation constant (kD) is calculated as the ratio koff/kₒₙ. It can be seen from Table 3 that the affinity of the affinity-matured anti-OX40 21 # H96-L80 mAb is increased approximately two times.
On the technique in general: SPR reads the build-up and loss of mass on a sensor chip optically.
In the case of B5, the “fold increase of affinity (reference not given; O21 mAb by Table 3)” value is around 2 times.

The target in a further assay is T3, hCD137-EGFP on HEK293 cells (human, UniProt Q07011 24-255).
T3 construct: pcDNA4-hCD137-EGFP transfected into HEK293; not shown: EGFP, C5MKY7
T3 sequence (Q07011 24-255): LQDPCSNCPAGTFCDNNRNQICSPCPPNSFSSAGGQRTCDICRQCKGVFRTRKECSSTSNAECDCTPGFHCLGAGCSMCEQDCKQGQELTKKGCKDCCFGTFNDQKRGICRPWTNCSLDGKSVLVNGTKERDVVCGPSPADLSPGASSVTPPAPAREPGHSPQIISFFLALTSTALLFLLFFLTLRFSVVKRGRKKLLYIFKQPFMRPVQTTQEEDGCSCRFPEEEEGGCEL
Kind of assay: flow cytometry on HEK293 cells expressing hCD137-EGFP, anti-hIg-PE. On the procedure:
(§3) HEK293 cells expressing hOX40-EGFP, hCD137-EGFP and hCD27-EGFP obtained in Embodiment 1 were resuspended in 0.5% PBS-BSA Buffer and anti-hOX40 mAb protein was added and the mixture was incubated on ice for 20 min. After washing, secondary antibody anti-hlg-PE (eBioscience) was added, and the mixture was incubated on ice for 20 min. After washing, the cells were resuspended in 500 μl 0.5% PBS-BSA Buffer and detected by flow cytometry.
Consider B2, for which the binding result is “no binding”.
On to B7, for which the binding result is “no binding”.

In a further assay the target is T1, hOX40-muFc. In words: SPR, BIAcore X100; antibody captured by anti-human Fc on CM5 chip, OX40-muFc as analyte, 1:1 model. The protocol: as §2
In general, Kd refers to a measure of binding affinity in units of concentration. A high value points to lower affinity. The koff is the first-order rate constant of dissociation. Higher therefore signals a short-lived complex. What is called kon is a measure of how fast the partners come together. The low end stands for slow association, the high end for fast association. B2 showed a Kd of 14.5 nM, a koff of 0.000608 s⁻¹ and a kon of 41800 M⁻¹ s⁻¹.
The matching figures for B5: 7.9 nM, 0.000237 s⁻¹ and 30000 M⁻¹ s⁻¹.
The matching figures for B6: 10.3 nM, 0.000342 s⁻¹ and 33300 M⁻¹ s⁻¹.
With B8, the Kd is 1.38 nM, the off-rate (koff) stood at 0.000391 s⁻¹ and the kon was 284000 M⁻¹ s⁻¹.

A further assay addresses T1, hOX40-muFc. In words: ELISA, hOX40-muFc coated at 2 µg/ml, goat anti-human IgG-HRP. On the procedure: as §1
On the technique in general: An ELISA detects its analyte on a solid surface through an enzyme-linked reagent.
Take B5: the “fold increase of affinity compared to anti-OX40 21# mAb” value was around 2 times.
The same measure, in the same setting: as for B6, the figure is around 2 times.

The next assay deals with T1, hOX40-muFc. Kind of assay: ELISA, hOX40-muFc coated at 2 µg/ml, goat anti-human IgG-HRP; column C of the drawn 4-P fit table y=(A-D)/(1+(x/C)^B)+D; the axis prints no unit, ng/ml is from paragraph 210. The source holds these as a separate data set. The protocol:
as §1
Molecule B2 yielded a half-maximal effective concentration (EC50) of 0.0139 µg/mL.
Still for that read-out and setting: with B9 the figure was 0.00949 µg/mL; with B8, 0.0139 µg/mL.
Take B10: the EC50 is 0.309 µg/mL.

A further assay deals with T2, hCD27-EGFP on HEK293 cells. In words: flow cytometry on HEK293 cells expressing hCD27-EGFP, anti-hIg-PE. The protocol:
as §3
Background: In flow cytometry, cells or beads pass a laser one at a time.
Turning to B2, the binding result is “no binding”.
In the case of B7, the binding result is “no binding”.

The values are drawn from patent US20180339059A1 (DINGFU BIOTARGET, published 2018).
